Data from article PMC12416549 (2024).

Molecular target: T1, TNFR1 (Homo sapiens, UniProt P19438)
T1 chain: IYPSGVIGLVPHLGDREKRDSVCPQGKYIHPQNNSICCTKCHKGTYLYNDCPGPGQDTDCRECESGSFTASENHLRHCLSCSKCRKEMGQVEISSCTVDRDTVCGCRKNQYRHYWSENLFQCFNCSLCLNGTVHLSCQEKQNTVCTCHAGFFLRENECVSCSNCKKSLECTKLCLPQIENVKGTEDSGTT
Assay: yeast display SC50

B1: E95G (designed binder)
chain: MTLQELLREEALRRAEAEAFRYALELLAEKFPEQKEYLLDLAEEIESQIRSLSGVDVEDVRKFLDKEWAWVKELLAEHPAELAEVEAARAARLAGLRAEVEAKVAA
  apparent Kd (screen): 0.653 nM

B2: L26T (designed binder)
chain: MTLQELLREEALRRAEAEAFRYALETLAEKFPEQKEYLLDLAEEIESQIRSLSGVDVEDVRKFLDKEWAWVKELLAEHPAELAEVEAARAARLAELRAEVEAKVAA
  apparent Kd (screen): 0.49 nM

B3: E58H (designed binder)
chain: MTLQELLREEALRRAEAEAFRYALELLAEKFPEQKEYLLDLAEEIESQIRSLSGVDVHDVRKFLDKEWAWVKELLAEHPAELAEVEAARAARLAELRAEVEAKVAA
  apparent Kd (screen): 0.593 nM

B4: L75C (designed binder)
chain: MTLQELLREEALRRAEAEAFRYALELLAEKFPEQKEYLLDLAEEIESQIRSLSGVDVEDVRKFLDKEWAWVKELCAEHPAELAEVEAARAARLAELRAEVEAKVAA
  apparent Kd (screen): 0.653 nM

B5: A98P (designed binder)
chain: MTLQELLREEALRRAEAEAFRYALELLAEKFPEQKEYLLDLAEEIESQIRSLSGVDVEDVRKFLDKEWAWVKELLAEHPAELAEVEAARAARLAELRPEVEAKVAA
  apparent Kd (screen): 0.539 nM

B6: G54D (designed binder)
chain: MTLQELLREEALRRAEAEAFRYALELLAEKFPEQKEYLLDLAEEIESQIRSLSDVDVEDVRKFLDKEWAWVKELLAEHPAELAEVEAARAARLAELRAEVEAKVAA
  apparent Kd (screen): 13.8 nM

B7: A23H (designed binder)
chain: MTLQELLREEALRRAEAEAFRYHLELLAEKFPEQKEYLLDLAEEIESQIRSLSGVDVEDVRKFLDKEWAWVKELLAEHPAELAEVEAARAARLAELRAEVEAKVAA
  apparent Kd (screen): 1.27 nM

B8: V100R (designed binder)
chain: MTLQELLREEALRRAEAEAFRYALELLAEKFPEQKEYLLDLAEEIESQIRSLSGVDVEDVRKFLDKEWAWVKELLAEHPAELAEVEAARAARLAELRAEREAKVAA
  apparent Kd (screen): 0.718 nM

B9: L12F (designed binder)
chain: MTLQELLREEAFRRAEAEAFRYALELLAEKFPEQKEYLLDLAEEIESQIRSLSGVDVEDVRKFLDKEWAWVKELLAEHPAELAEVEAARAARLAELRAEVEAKVAA
  apparent Kd (screen): 0.593 nM

B10: D40V (designed binder)
chain: MTLQELLREEALRRAEAEAFRYALELLAEKFPEQKEYLLVLAEEIESQIRSLSGVDVEDVRKFLDKEWAWVKELLAEHPAELAEVEAARAARLAELRAEVEAKVAA
  apparent Kd (screen): 5.31 nM

B11: R21V (designed binder)
chain: MTLQELLREEALRRAEAEAFVYALELLAEKFPEQKEYLLDLAEEIESQIRSLSGVDVEDVRKFLDKEWAWVKELLAEHPAELAEVEAARAARLAELRAEVEAKVAA
  apparent Kd (screen): 0.718 nM

B12: L39K (designed binder)
chain: MTLQELLREEALRRAEAEAFRYALELLAEKFPEQKEYLKDLAEEIESQIRSLSGVDVEDVRKFLDKEWAWVKELLAEHPAELAEVEAARAARLAELRAEVEAKVAA
  apparent Kd (screen): 1.16 nM

B13: I49S (designed binder)
chain: MTLQELLREEALRRAEAEAFRYALELLAEKFPEQKEYLLDLAEEIESQSRSLSGVDVEDVRKFLDKEWAWVKELLAEHPAELAEVEAARAARLAELRAEVEAKVAA
  apparent Kd (screen): 0.539 nM

B14: D59S (designed binder)
chain: MTLQELLREEALRRAEAEAFRYALELLAEKFPEQKEYLLDLAEEIESQIRSLSGVDVESVRKFLDKEWAWVKELLAEHPAELAEVEAARAARLAELRAEVEAKVAA
  apparent Kd (screen): 0.539 nM

B15: D56N (designed binder)
chain: MTLQELLREEALRRAEAEAFRYALELLAEKFPEQKEYLLDLAEEIESQIRSLSGVNVEDVRKFLDKEWAWVKELLAEHPAELAEVEAARAARLAELRAEVEAKVAA
  apparent Kd (screen): 0.653 nM

B16: A98V (designed binder)
chain: MTLQELLREEALRRAEAEAFRYALELLAEKFPEQKEYLLDLAEEIESQIRSLSGVDVEDVRKFLDKEWAWVKELLAEHPAELAEVEAARAARLAELRVEVEAKVAA
  apparent Kd (screen): 0.49 nM

B17: E18P (designed binder)
chain: MTLQELLREEALRRAEAPAFRYALELLAEKFPEQKEYLLDLAEEIESQIRSLSGVDVEDVRKFLDKEWAWVKELLAEHPAELAEVEAARAARLAELRAEVEAKVAA
  apparent Kd (screen): 1.05 nM

B18: R21K (designed binder)
chain: MTLQELLREEALRRAEAEAFKYALELLAEKFPEQKEYLLDLAEEIESQIRSLSGVDVEDVRKFLDKEWAWVKELLAEHPAELAEVEAARAARLAELRAEVEAKVAA
  apparent Kd (screen): 0.593 nM

B19: A15T (designed binder)
chain: MTLQELLREEALRRTEAEAFRYALELLAEKFPEQKEYLLDLAEEIESQIRSLSGVDVEDVRKFLDKEWAWVKELLAEHPAELAEVEAARAARLAELRAEVEAKVAA
  apparent Kd (screen): 0.49 nM

B20: E95W (designed binder)
chain: MTLQELLREEALRRAEAEAFRYALELLAEKFPEQKEYLLDLAEEIESQIRSLSGVDVEDVRKFLDKEWAWVKELLAEHPAELAEVEAARAARLAWLRAEVEAKVAA
  apparent Kd (screen): 0.446 nM

B21: R8W (designed binder)
chain: MTLQELLWEEALRRAEAEAFRYALELLAEKFPEQKEYLLDLAEEIESQIRSLSGVDVEDVRKFLDKEWAWVKELLAEHPAELAEVEAARAARLAELRAEVEAKVAA
  apparent Kd (screen): 0.539 nM

B22: E81S (designed binder)
chain: MTLQELLREEALRRAEAEAFRYALELLAEKFPEQKEYLLDLAEEIESQIRSLSGVDVEDVRKFLDKEWAWVKELLAEHPASLAEVEAARAARLAELRAEVEAKVAA
  apparent Kd (screen): 0.49 nM

B23: S51N (designed binder)
chain: MTLQELLREEALRRAEAEAFRYALELLAEKFPEQKEYLLDLAEEIESQIRNLSGVDVEDVRKFLDKEWAWVKELLAEHPAELAEVEAARAARLAELRAEVEAKVAA
  apparent Kd (screen): 1.69 nM

B24: E36Q (designed binder)
chain: MTLQELLREEALRRAEAEAFRYALELLAEKFPEQKQYLLDLAEEIESQIRSLSGVDVEDVRKFLDKEWAWVKELLAEHPAELAEVEAARAARLAELRAEVEAKVAA
  apparent Kd (screen): 0.49 nM

B25: L6S (designed binder)
chain: MTLQESLREEALRRAEAEAFRYALELLAEKFPEQKEYLLDLAEEIESQIRSLSGVDVEDVRKFLDKEWAWVKELLAEHPAELAEVEAARAARLAELRAEVEAKVAA
  apparent Kd (screen): 4.83 nM

B26: D65S (designed binder)
chain: MTLQELLREEALRRAEAEAFRYALELLAEKFPEQKEYLLDLAEEIESQIRSLSGVDVEDVRKFLSKEWAWVKELLAEHPAELAEVEAARAARLAELRAEVEAKVAA
  apparent Kd (screen): 0.79 nM

B27: E44P (designed binder)
chain: MTLQELLREEALRRAEAEAFRYALELLAEKFPEQKEYLLDLAEPIESQIRSLSGVDVEDVRKFLDKEWAWVKELLAEHPAELAEVEAARAARLAELRAEVEAKVAA
  apparent Kd (screen): 1.16 nM

B28: A42L (designed binder)
chain: MTLQELLREEALRRAEAEAFRYALELLAEKFPEQKEYLLDLLEEIESQIRSLSGVDVEDVRKFLDKEWAWVKELLAEHPAELAEVEAARAARLAELRAEVEAKVAA
  apparent Kd (screen): 2.05 nM

B29: I45Q (designed binder)
chain: MTLQELLREEALRRAEAEAFRYALELLAEKFPEQKEYLLDLAEEQESQIRSLSGVDVEDVRKFLDKEWAWVKELLAEHPAELAEVEAARAARLAELRAEVEAKVAA
  apparent Kd (screen): 15.2 nM

B30: A91R (designed binder)
chain: MTLQELLREEALRRAEAEAFRYALELLAEKFPEQKEYLLDLAEEIESQIRSLSGVDVEDVRKFLDKEWAWVKELLAEHPAELAEVEAARARRLAELRAEVEAKVAA
  apparent Kd (screen): 0.446 nM

B31: E29V (designed binder)
chain: MTLQELLREEALRRAEAEAFRYALELLAVKFPEQKEYLLDLAEEIESQIRSLSGVDVEDVRKFLDKEWAWVKELLAEHPAELAEVEAARAARLAELRAEVEAKVAA
  apparent Kd (screen): 0.539 nM

B32: A17Q (designed binder)
chain: MTLQELLREEALRRAEQEAFRYALELLAEKFPEQKEYLLDLAEEIESQIRSLSGVDVEDVRKFLDKEWAWVKELLAEHPAELAEVEAARAARLAELRAEVEAKVAA
  apparent Kd (screen): 0.277 nM

B33: E95S (designed binder)
chain: MTLQELLREEALRRAEAEAFRYALELLAEKFPEQKEYLLDLAEEIESQIRSLSGVDVEDVRKFLDKEWAWVKELLAEHPAELAEVEAARAARLASLRAEVEAKVAA
  apparent Kd (screen): 0.539 nM

B34: A28I (designed binder)
chain: MTLQELLREEALRRAEAEAFRYALELLIEKFPEQKEYLLDLAEEIESQIRSLSGVDVEDVRKFLDKEWAWVKELLAEHPAELAEVEAARAARLAELRAEVEAKVAA
  apparent Kd (screen): 7.78 nM

B35: E16L (designed binder)
chain: MTLQELLREEALRRALAEAFRYALELLAEKFPEQKEYLLDLAEEIESQIRSLSGVDVEDVRKFLDKEWAWVKELLAEHPAELAEVEAARAARLAELRAEVEAKVAA
  apparent Kd (screen): 0.593 nM
